Experimental data from US20190100563A1 (UNIVERSITY COURT OF THE UNIVERSITY OF EDINBURGH, published 2019).
Changes are numbered by the printed parent chain. In names and notes the source's numbering stands.

Assays:
[1] = target: T1, Human complement factor H purified from plasma (human, UniProt P08603 19-1231); assay: SPR, same assay as for PspCN (37-140)
T1 construct: also called Plasma CFH; plasma-purified CFH

[2] = target: T1, Human complement factor H purified from …; assay: SPR
[3] = target: Human C3b (plasma-purified) (human, UniProt P01024 23-667; P01024 749-1663); assay: SPR, amine-coupled C3b on C1 chip, equilibrium 1:1 fit
Human C3b (plasma-purified), sequence (P01024 23-667 limits assumed, chain 1 of 2): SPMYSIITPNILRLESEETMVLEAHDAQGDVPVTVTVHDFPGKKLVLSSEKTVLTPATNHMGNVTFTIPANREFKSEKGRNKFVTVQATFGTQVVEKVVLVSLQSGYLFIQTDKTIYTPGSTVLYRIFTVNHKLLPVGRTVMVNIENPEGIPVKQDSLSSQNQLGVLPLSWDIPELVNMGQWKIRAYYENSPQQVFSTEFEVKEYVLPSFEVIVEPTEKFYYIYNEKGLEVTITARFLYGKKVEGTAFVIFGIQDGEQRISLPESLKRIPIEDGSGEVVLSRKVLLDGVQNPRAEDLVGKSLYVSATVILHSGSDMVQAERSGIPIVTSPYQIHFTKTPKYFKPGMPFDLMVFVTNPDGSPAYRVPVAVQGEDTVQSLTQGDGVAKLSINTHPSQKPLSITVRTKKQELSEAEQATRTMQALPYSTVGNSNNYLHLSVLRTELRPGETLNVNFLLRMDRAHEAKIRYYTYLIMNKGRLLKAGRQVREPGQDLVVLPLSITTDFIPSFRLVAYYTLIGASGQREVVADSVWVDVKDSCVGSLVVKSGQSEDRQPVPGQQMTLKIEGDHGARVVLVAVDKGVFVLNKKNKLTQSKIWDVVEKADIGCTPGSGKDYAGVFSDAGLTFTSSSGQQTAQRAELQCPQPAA
Human C3b (plasma-purified), sequence (P01024 749-1663 limits assumed, chain 2 of 2): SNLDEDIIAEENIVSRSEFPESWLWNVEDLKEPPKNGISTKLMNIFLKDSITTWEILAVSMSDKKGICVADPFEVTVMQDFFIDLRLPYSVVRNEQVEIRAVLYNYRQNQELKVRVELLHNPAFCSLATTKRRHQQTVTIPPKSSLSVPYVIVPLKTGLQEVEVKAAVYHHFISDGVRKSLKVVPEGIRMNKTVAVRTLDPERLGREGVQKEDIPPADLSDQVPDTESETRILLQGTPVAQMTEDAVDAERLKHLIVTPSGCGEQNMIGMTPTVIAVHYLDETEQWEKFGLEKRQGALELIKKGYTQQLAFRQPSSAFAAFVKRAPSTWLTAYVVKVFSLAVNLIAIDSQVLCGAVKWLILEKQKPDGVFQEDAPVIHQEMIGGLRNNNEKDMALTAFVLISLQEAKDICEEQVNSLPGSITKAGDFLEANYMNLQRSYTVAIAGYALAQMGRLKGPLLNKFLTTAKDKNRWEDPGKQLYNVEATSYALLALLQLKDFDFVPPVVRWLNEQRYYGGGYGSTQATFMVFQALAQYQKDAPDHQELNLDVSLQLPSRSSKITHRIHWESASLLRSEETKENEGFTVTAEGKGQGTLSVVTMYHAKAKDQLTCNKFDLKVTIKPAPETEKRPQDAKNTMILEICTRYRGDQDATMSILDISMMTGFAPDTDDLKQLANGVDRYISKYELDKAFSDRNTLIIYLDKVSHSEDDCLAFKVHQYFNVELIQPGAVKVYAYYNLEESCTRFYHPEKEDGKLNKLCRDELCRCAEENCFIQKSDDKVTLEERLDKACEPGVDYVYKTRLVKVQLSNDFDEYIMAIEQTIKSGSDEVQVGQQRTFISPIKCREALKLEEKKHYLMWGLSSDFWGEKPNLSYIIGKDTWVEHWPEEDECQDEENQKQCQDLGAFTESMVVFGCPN

B1: PspC (37-120) (other)
chain: ATENEGSTQAATSSNMAKTEHRKAAKQVVDEYIEKMLREIQLDRRKHTQNVALNIKLSAIKTKYLRELNVLEEKSKDELPSEIK
B1 was tested, and the “decrease in binding affinity against PspCN (37-140)” value (“decrease in binding affinity” for short) [1] was ≥ 3 orders of magnitude.

B2: sPspCNR1 (N-terminally hexaHis-SUMO-tagged PspC residues 37-292, strain D39, including the R1 domain) (other)
chain: ATENEGSTQAATSSNMAKTEHRKAAKQVVDEYIEKMLREIQLDRRKHTQNVALNIKLSAIKTKYLRELNVLEEKSKDELPSEIKAKLDAAFEKFKKDTLKPGEKVAEAKKKVEEAKKKAEDQKEEDRRNYPTNTYKTLELEIAEFDVKVKEAELELVKEEAKESRNEGTIKQAKEKVESKKAEATRLENIKTDRKKAEEEAKRKADGKLKEANVATSDQGKPKGRAKRGVPGELATPDKKENDAKSSDSSVGEETL
notes: not shown: N-terminal hexaHis-SUMO tag from the pE-SUMOpro Kan vector
B2: binds [2].

B3: PspC (37-110) (other)
chain: ATENEGSTQAATSSNMAKTEHRKAAKQVVDEYIEKMLREIQLDRRKHTQNVALNIKLSAIKTKYLRELNVLEEK
For B3, the “decrease in binding affinity” value [1] was ≥ 3 orders of magnitude.

B4: PspC (37-130) (other)
chain: ATENEGSTQAATSSNMAKTEHRKAAKQVVDEYIEKMLREIQLDRRKHTQNVALNIKLSAIKTKYLRELNVLEEKSKDELPSEIKAKLDAAFEKF
For B4, the “decrease in binding affinity” value [1] was ≥ 3 orders of magnitude.

B5: rCFH-D1119G:PspCN complex (other)
chain 1: EDCNELPPRRNTEILTGSWSDQTYPEGTQAIYKCRPGYRSLGNVIMVCRKGEWVALNPLRKCQKRPCGHPGDTPFGTFTLTGGNVFEYGVKAVYTCNEGYQLLGEINYRECDTDGWTNDIPICEVVKCLPVTAPENGKIVSSAMEPDREYHFGQAVRFVCNSGYKIEGDEEMHCSDDGFWSKEKPKCVEISCKSPDVINGSPISQKIIYKENERFQYKCNMGYEYSERGDAVCTESGWRPLPSCEEKSCDNPYIPNGDYSPLRIKHRTGDEITYQCRNGFYPATRGNTAKCTSTGWIPAPRCTLKPCDYPDIKHGGLYHENMRRPYFPVAVGKYYSYYCDEHFETPSGSYWDHIHCTQDGWSPAVPCLRKCYFPYLENGYNQNYGRKFVQGKSIDVACHPGYALPKAQTTVTCMENGWSPTPRCIRVKTCSKSSIDIENGFISESQYTYALKEKAKYQCKLGYVTADGETSGSITCGKDGWSAQPTCIKSCDIPVFMNARTKNDFTWFKLNDTLDYECHDGYESNTGSTTGSIVCGYNGWSDLPICYERECELPKIDVHLVPDRKKDQYKVGEVLKFSCKPGFTIVGPNSVQCYHFGLSPDLPICKEQVQSCGPPPELLNGNVKEKTKEEYGHSEVVEYYCNPRFLMKGPNKIQCVDGEWTTLPVCIVEESTCGDIPELEHGWAQLSSPPYYYGDSVEFNCSESFTMIGHRSITCIHGVWTQLPQCVAIDKLKKCKSSNLIILEEHLKNKKEFDHNSNIRYRCRGKEGWIHTVCINGRWDPEVNCSMAQIQLCPPPPQIPNSHNMTTTLNYRDGEKVSVLCQENYLIQEGEEITCKDGRWQSIPLCVEKIPCSQPPQIEHGTINSSRSSQESYAHGTKLSYTCEGGFRISEENETTCYMGKWSSPPQCEGLPCKSPPEISHGVVAHMSDSYQYGEEVTYKCFEGFGIDGPAIAKCLGEKWSHPPSCIKTDCLSLPSFENAIPMGEKKDVYKAGEQVTYTCATYYKMDGASNVTCINSRWTGRPTCRDTSCVNPPTVQNAYIVSRQMSKYPSGERVRYQCRSPYEMFGDEEVMCLNGNWTEPPQCKDSTGKCGPPPPIDNGGITSFPLSVYAPASSVEYQCQNLYQLEGNKRITCRNGQWSEPPKCLHPCVISREIMENYNIALRWTAKQKLYSRTGESVEFVCKRGYRLSSRSHTLRTTCWDGKLEYPTCAKR
chain 2: ATENEGSTQAATSSNMAKTEHRKAAKQVVDEYIEKMLREIQLDRRKHTQNVALNIKLSAIKTKYLRELNVLEEKSKDELPSEIKAKLDAAFEKFKKDTLKPGEK
notes: also called PspCN:CFH (D1119G)
With B5 the Kd [3] was 320 nM.

B6: Recombinant human CFH, wild-type sequence, from Pichia pastoris (other)
chain: B5 chain 1 with G1101D
notes: also called rCFH; CFH (wt)
Work on B6 yielded a Kd [3] of 580 nM.

B7: rCFH:PspCN complex (other)
chain 1: B5 chain 1 with G1101D
chain 2: B5 chain 2
notes: also called CFH (wt):PspCN
Work on B7 yielded a Kd [3] of 160 nM.

B8: Recombinant human CFH (D1119G) from Pichia pastoris (other)
chain: B5 chain 1
notes: also called rCFH-D1119G; rCFH (D1119G)
Work on B8 yielded a Kd [3] of 540 nM.
